# Key:
# [1] = target: T1, low-density lipoprotein receptor-related protein (LRP), purified (human, UniProt Q07954 20-4544); experiment: homologous displacement of ^125I-A2 (5 nM) by unlabeled A2 on LRP-coated wells, LIGAND fit
# T1 construct: mature; also called low density lipoprotein receptor-related protein/α2-macroglobulin receptor; LRP receptor
# [2] = target: LRP on mouse embryonic fibroblasts (MEF cells) (mouse, UniProt Q91ZX7 20-4545); experiment: cell-based or functional assay
# [3] = target: T1, low-density lipoprotein …; experiment: heterologous displacement of ^125I-fVIII (1 nM) from immobilised LRP; isolated A2 domain as unlabeled competitor
# Protocol: Solid-phase binding assays. […] Microtiter wells were coated with purified LRP or BSA (3 μg/ml) in 50 mM Tris, 0.15 M NaCl, pH 8.0, for 16 h and then blocked with 3% BSA in TBS. […] The radioactivity bound to the wells was counted using a γ-counter (Pharmacia). Affinity constants were derived from homologous and heterologous displacement data using the computer program LIGAND (Munson, P T and Rodbard, D. Anal. Biochem. 107:220-239 (1980)).
# T1 sequence (Q07954 20-4544, form in doubt): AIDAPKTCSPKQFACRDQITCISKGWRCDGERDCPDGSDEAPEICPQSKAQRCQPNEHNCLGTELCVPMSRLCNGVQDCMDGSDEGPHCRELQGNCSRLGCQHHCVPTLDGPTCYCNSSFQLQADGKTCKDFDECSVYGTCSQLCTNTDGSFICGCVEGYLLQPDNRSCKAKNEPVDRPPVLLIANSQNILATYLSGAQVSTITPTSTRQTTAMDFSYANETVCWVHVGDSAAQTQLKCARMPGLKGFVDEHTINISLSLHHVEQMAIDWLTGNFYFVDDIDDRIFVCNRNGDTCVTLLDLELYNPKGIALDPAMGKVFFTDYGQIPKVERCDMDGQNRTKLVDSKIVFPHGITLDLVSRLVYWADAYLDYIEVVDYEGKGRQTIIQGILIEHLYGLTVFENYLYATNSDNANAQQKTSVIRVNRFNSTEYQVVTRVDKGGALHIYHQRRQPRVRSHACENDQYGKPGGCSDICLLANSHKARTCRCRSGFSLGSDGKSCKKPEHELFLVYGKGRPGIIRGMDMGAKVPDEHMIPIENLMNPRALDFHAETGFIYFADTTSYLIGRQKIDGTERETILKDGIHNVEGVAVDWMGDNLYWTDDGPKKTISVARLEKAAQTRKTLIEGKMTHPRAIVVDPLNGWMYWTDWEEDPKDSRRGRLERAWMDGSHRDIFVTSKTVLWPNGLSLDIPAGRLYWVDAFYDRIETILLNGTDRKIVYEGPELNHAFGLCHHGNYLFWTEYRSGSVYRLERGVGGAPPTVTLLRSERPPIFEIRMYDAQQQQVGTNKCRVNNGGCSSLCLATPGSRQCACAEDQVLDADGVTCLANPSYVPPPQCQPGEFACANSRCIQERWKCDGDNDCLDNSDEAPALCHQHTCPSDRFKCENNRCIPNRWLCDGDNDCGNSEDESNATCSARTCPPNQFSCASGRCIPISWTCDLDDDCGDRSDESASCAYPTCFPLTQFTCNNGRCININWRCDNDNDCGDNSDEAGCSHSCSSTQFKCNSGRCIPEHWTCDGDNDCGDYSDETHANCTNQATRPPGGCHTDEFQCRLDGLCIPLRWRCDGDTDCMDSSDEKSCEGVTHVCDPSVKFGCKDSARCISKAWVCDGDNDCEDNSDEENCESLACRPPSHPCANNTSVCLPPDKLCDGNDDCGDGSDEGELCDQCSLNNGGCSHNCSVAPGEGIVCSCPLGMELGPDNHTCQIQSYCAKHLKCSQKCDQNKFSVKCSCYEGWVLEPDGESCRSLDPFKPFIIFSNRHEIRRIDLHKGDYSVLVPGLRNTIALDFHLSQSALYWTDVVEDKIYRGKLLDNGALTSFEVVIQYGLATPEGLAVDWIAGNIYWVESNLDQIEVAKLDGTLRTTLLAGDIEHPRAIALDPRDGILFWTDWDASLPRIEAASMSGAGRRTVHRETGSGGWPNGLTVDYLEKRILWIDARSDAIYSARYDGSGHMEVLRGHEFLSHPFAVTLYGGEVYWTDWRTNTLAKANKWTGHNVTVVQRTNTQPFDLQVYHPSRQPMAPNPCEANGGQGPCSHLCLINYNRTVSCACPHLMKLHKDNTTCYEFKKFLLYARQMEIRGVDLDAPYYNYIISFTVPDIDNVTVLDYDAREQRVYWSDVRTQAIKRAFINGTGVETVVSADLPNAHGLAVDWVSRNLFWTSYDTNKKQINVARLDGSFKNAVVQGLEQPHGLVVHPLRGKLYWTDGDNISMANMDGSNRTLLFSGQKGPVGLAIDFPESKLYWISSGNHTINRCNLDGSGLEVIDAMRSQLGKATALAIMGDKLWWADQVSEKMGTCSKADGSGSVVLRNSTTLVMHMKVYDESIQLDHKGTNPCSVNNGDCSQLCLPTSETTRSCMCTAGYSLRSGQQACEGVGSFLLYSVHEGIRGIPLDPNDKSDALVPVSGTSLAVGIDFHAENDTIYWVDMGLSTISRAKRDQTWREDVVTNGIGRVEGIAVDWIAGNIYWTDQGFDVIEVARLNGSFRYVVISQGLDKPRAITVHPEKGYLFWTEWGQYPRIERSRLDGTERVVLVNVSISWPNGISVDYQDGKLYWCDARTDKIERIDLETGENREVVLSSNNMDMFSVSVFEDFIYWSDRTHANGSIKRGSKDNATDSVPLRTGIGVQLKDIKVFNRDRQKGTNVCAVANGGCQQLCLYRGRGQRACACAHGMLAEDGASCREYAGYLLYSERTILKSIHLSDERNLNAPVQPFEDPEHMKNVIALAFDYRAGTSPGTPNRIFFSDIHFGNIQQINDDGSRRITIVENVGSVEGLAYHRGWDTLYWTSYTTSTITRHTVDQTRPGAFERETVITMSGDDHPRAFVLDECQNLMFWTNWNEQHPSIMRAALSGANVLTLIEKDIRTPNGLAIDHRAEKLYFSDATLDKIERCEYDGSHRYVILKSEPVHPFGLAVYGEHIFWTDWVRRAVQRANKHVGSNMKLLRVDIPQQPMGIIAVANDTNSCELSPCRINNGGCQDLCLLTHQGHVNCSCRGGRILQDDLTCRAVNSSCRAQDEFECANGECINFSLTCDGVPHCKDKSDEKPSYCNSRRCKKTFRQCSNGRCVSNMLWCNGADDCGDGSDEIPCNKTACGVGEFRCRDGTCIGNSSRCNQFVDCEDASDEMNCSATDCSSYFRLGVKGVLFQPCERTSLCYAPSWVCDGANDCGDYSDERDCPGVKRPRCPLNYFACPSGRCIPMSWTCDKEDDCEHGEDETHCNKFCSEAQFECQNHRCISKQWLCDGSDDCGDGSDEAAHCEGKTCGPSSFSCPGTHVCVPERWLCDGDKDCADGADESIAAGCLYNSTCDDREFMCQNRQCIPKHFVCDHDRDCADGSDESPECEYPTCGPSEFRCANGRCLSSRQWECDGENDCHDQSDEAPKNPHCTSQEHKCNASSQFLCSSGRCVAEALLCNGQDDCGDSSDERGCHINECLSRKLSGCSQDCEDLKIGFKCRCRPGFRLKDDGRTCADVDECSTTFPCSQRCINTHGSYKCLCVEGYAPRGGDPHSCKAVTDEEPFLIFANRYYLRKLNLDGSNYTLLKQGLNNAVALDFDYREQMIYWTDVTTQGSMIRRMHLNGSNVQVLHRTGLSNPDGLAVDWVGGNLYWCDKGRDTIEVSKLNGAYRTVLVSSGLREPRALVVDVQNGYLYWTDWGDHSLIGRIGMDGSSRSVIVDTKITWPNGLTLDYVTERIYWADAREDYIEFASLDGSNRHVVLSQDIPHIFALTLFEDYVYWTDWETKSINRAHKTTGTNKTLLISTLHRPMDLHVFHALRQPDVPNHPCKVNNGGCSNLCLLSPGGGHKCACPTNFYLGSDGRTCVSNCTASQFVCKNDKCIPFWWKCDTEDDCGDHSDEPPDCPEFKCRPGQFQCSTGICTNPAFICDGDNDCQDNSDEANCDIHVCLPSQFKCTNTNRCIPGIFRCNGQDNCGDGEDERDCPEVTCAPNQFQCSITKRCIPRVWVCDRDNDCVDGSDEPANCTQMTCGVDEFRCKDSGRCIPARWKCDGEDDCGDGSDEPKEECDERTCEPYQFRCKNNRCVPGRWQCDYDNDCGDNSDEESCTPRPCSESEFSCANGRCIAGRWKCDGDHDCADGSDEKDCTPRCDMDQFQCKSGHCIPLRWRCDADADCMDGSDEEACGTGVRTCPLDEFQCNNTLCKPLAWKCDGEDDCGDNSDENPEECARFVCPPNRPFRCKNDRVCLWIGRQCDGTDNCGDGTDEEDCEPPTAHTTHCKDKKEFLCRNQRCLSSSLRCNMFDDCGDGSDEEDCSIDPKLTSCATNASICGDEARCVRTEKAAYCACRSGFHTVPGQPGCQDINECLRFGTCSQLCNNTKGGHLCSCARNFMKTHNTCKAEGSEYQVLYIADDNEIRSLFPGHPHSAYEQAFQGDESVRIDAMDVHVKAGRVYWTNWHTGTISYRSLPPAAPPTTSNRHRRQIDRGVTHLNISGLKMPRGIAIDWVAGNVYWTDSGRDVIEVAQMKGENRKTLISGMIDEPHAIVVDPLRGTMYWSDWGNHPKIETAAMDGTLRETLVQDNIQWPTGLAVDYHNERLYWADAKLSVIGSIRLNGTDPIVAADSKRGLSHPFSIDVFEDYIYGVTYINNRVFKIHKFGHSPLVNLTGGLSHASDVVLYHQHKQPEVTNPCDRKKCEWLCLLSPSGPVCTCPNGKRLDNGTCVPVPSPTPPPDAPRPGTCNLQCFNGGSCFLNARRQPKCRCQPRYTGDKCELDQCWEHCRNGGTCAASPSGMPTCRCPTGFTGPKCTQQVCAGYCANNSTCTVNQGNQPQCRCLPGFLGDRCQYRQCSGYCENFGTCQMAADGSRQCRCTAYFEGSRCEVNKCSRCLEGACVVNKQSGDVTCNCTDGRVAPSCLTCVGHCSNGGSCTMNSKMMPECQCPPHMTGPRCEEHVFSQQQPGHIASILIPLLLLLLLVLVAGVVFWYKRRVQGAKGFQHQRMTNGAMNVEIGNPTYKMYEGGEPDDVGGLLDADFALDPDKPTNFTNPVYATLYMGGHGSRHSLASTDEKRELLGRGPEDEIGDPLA
binder,measurement,setting,value
"A2 subunit of factor VIII, plasma-derived (from thrombin-activated fVIII) (other, Radio-iodinated where used as tracer; also called A2 domain; plasma-derived A2) SVAKKHPKTWVHYIAAEEEDWDYAPLVLAPDDRSYKSQYLNNGPQRIGRKYKKVRFMAYTDETFKTREAIQHESGILGPLLYGEVGDTLLIIFKNQASRPYNIYPHGITDVRPLYSRRLPKGVKHLKDFPILPGEIFKYKWTVTVEDGPTKSDPRCLTRYYSSFVNMERDLASGLIGPLLICYKESVDQRGNQIMSDKRNVILFSVFDENRSWYLTENIQRFLPNPAGVQLEDPEFQASNIMHSINGYVFDSLQLSVCLHEVAYWYILSIGAQTDFLSVFFSGYTFKHKMVYEDTLTLFPFSGETVFMSMENPGLWILGCHNSDFRNRGMTALLKVSSCDKNTGDYYEDSYEDISAYLLSKNNAIEPR",Kd,[1],130 nM
same,inhibition of degradation of ^125I-fVIII/vWf complex by MEF cells by a 1000-fold excess of A2,[2],> 60%
same,inhibition of internalization of ^125I-fVIII/vWf complex by MEF cells by a 1000-fold excess of A2,[2],> 70%
same,Ki,[3],132 nM

# From US20070232789A1 (UNIVERSITY OF MARYLAND BALTIMORE, published 2007)
